Measurements taken from publication PMC7386920, “Evolution of a plant gene cluster in Solanaceae and emergence of metabolic diversity” (eLife, 2020).

Experiments:
Test in all cases: purified protein
Conditions in all cases: fatty acid varied 0-500 uM, 5 mM ATP, 0.5 mM CoA, 10 mM MgCl2, 1 mM NADH, pH 7.5, 30 C
[1] = substrate: CCCCCCCC(=O)O
[2] = substrate: CC(C)CCCCCCC(=O)O; assay type: biochemical, Solanum lycopersicum
[3] = substrate: CCCCCC(=O)O; assay type: biochemical, Solanum lycopersicum
[4] = substrate: CCCCCCC/C=C/C(=O)O; assay type: biochemical, Solanum lycopersicum
[5] = substrate: CCCCCCCCCC(=O)O; assay type: biochemical, Solanum lycopersicum
[6] = substrate: CCCCCCCCCCCC(=O)O; assay type: biochemical, Solanum lycopersicum

B1: Sl-AACS1 (Solanum lycopersicum) (protein)
chain: MNKFFKTSNIALRFFNGSVQLPAPTHRVRQLCQLAGSIESTDESRKLLEGVVTSPANYVPLTPISYLERAADVFGDRTSVVFGSSVKYTWEETHSRCLKLASALIQLGISRGDVVATLAPNVPAMQELHFAVPMAGAVLCTLNTRLDSSMVAYLLKHSETKMIFVDQQFLQIAQQALSLLSKDKTIKPPILILIPESNDSSPPVSNIHEYENLLSSGSSNFTIRWPKSEFDPISINYTSGTTSSPKGVVYNHRGAYLNSISAFLCHGMALMPTYLWTLPMFHCNGWCMNWGVAALGGTNVCLRHVSAKDIFESISVNKVTHMSAAPIVLSMMANASPNDRKPLLHKVEIMTGGSPPPPQILSKMEQLGFGVSHGYGLTETYSGATTCLWKPEWDSLPLEERAALKSRQGVKVLCIERVDVRDPETMENVPADGKSIGEIVCRGNTVMSGYLKDVKSTEEAFKGGWFHTGDVAVKHPDGYIEIKDRLKDIIISGGENISTLEVEGVLHSHPAVVEAAVVARPDDHWGQTPCAFVKLKEGSEEITSDEIIKYCRDHLPHYMVPRAVVFQDLPTTSTGKVQKFILREKAKALASLFNTDRKV
notes: full-length ORF in pET28b, His-tagged (tag removal not mentioned), E. coli BL21 Rosetta, Ni-NTA purified
Km [1]: 145.9 ± 10.4 µM | kcat [1]: 13.2 ± 0.4 min⁻¹ | Km [2]: 82.1 ± 10.3 µM | kcat [2]: 13.6 ± 0.6 min⁻¹ | Km [3]: 214.8 ± 40 µM | kcat [3]: 13.8 ± 1.2 min⁻¹ | Km [4]: 36.4 ± 4.5 µM | kcat [4]: 5.9 ± 0.2 min⁻¹ | Km [5]: 71.8 ± 9.6 µM | kcat [5]: 5.6 ± 0.2 min⁻¹ | Km [6]: 68.1 ± 15.8 µM | kcat [6]: 4.2 ± 0.3 min⁻¹
